From patent US20140274782A1, “AFFINITY REAGENTS AND METHODS FOR DETECTION, PURIFICATION, AND PROTEOMIC ANALYSIS OF METHYLATED PROTEINS” (The Board of Trustees of the Leland Stanford Junior …, priority 2013, published 2014)

T1: G9a and GLP (Homo sapiens, UniProt Q96KQ7+Q9H9B1)
T1 sequence (Q96KQ7 2-1210 limits assumed): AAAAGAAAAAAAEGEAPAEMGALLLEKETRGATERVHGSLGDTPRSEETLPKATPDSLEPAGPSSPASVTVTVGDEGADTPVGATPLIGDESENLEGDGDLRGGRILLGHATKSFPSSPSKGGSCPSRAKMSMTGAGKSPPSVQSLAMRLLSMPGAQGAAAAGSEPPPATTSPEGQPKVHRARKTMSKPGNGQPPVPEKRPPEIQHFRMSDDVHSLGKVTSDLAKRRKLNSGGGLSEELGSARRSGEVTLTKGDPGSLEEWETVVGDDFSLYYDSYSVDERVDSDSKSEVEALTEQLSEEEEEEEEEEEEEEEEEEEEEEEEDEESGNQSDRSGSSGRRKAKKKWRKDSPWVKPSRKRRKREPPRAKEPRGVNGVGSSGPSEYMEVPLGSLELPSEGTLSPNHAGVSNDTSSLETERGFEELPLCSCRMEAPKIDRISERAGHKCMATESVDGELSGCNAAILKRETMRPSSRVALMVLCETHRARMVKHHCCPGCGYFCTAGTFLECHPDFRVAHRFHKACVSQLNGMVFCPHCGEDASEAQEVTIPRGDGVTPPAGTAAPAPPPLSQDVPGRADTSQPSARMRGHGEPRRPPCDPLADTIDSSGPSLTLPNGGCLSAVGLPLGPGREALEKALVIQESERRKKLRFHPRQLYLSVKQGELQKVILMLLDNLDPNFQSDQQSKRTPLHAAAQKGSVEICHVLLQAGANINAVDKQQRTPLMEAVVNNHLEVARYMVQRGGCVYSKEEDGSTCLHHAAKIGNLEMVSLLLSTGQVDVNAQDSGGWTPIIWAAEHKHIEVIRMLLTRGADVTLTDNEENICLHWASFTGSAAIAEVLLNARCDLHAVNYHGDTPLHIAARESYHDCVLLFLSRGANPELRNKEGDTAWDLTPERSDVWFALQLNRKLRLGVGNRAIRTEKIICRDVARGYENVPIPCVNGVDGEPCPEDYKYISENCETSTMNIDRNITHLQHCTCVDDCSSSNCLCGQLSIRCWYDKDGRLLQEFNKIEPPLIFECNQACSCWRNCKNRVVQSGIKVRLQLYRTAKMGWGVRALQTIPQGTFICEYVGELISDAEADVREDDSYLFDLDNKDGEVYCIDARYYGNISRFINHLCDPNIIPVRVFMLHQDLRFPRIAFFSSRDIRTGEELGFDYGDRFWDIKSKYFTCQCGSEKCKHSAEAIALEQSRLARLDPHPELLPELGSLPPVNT
T1 sequence (Q9H9B1 2-1298 limits assumed): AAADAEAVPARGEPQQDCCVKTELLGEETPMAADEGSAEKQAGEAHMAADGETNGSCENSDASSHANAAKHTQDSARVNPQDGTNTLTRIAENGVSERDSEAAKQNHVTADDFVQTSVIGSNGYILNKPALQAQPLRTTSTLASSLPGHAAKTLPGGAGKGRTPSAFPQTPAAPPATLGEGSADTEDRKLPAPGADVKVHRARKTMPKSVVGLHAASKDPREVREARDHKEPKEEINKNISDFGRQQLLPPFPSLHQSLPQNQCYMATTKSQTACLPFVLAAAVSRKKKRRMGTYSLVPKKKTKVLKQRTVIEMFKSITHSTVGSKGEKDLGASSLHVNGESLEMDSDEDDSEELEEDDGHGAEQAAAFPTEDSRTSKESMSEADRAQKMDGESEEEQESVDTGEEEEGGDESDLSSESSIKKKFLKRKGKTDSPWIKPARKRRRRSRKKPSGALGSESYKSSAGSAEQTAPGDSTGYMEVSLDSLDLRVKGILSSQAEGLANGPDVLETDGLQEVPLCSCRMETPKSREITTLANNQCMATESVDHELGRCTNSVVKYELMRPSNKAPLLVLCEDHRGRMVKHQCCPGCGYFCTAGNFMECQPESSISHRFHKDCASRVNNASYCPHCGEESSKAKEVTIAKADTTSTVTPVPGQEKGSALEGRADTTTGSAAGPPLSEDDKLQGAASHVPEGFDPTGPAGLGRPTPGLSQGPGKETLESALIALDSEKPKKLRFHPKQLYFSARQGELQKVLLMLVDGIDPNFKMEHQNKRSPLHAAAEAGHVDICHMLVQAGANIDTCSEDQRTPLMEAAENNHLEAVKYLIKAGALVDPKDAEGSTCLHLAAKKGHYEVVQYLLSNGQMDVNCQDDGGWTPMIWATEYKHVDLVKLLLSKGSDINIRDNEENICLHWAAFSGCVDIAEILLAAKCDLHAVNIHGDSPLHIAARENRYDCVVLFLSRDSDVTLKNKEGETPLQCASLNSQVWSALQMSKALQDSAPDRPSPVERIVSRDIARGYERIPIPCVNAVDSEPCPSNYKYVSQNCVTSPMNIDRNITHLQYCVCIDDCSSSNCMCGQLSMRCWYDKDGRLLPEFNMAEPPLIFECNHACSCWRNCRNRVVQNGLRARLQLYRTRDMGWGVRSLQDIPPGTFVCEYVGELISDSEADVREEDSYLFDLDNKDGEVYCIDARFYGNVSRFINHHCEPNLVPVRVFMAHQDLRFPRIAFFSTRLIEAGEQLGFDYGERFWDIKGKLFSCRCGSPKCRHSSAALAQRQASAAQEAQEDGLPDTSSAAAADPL


Columns and labels:
[1] = biological target: T1, G9a and GLP; test: Triple SILAC pull-down after UNC0638 treatment of 293T cells, DMSO/UNC0638 ratio of protein captured by 3×MBT; format: cell-based; design: cells were treated for 24 hours with UNC0638 at 2.5 μM or DMSO vehicle control; endogenous in cells; host or cells: HEK 293T; conditions: for Relative to UNC0638 UNC Heavy / Relative to UNC0638 UNC Light: SILAC ratio DMSO/UNC0638 of protein pulled down with 3xMBT; for Relative to UNC0638 UNC Heavy: UNC0638 in heavy SILAC media; for Relative to UNC0638 UNC Light: UNC0638 in light SILAC media; for Relative to UNC0638 Average: average of UNC Light and UNC Heavy experiments;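 as to all read-outs here: mass spectrometry (Q-Exactive) SILAC quantitation, DMSO/UNC0638 ratio computed after subtracting 3×MBTD355N mutant pull-down background, only proteins with at least twofold 3×MBT over mutant signal considered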
Method: For UNC0638 treatments cells were treated for 24 hours with UNC0638 at 2.5 μM or DMSO vehicle control. One experiment treated cells in light media with UNC0638, the other treated cells in heavy media. Both experiments included cells in medium media treated with DMSO for negative control pull-down with 3×MBTD355N.
UNC0638 treatment experiments used a Q-Exactive mass spectrometer (ThermoFisher Scientific). A 25 cm HPLC column with 3 μm Reliasil (Orochem) was used to separate peptides over a 4 hour gradient from 0 to 75% acetonitrile. Ions were generated using a custom nanospray source flowing at 250 nL/minute. Mass spectrometry settings were 70,000 MS1 resolution, data dependent selection of up to 20 precursor ions per cycle, dynamic exclusion of 30 seconds and isolation window of 2 m/z.
For UNC0638 experiments the treated vs. untreated ratio was determined by subtracting the value from 3×MBTD355N prior to dividing values from the light and heavy channels. Only proteins showing a two-fold signal to background ratio (3×MBT/3×MBTD355N) were evaluated as potential G9a/GLP substrates.

[2] = system: 3×MBT domain of L3MBTL1; test: Triple SILAC pull-down, 3xMBT/3xMBTD355N ratio (cytoplasmic, nuclear and chromatin fractions of 293T cells); format: binding, human; conditions: SILAC ratio, pull-down 3xMBT vs 3xMBTD355N; for 3xMBT/D355N UNC Heavy: experiment with UNC0638 in heavy SILAC media; for 3xMBT/D355N UNC Light: experiment with UNC0638 in light SILAC media;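 as to all read-outs here: proteins quantified with MaxQuant, requiring at least two unique peptides and quantification in both label directions, normalized to the mean of proteins from a digested loading control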

| Relative to UNC0638 UNC Heavy [1] | Relative to UNC0638 UNC Light [1] | Relative to UNC0638 Average [1] | Candidate G9a/GLP target ([1]; reduced association with 3xMBT after UNC0638 treatment) | Molecule | 3xMBT/D355N UNC Heavy [2] | 3xMBT/D355N UNC Light [2] |
| --- | --- | --- | --- | --- | --- | --- |
| 0.43 log base 2 | 1.96 log base 2 | 1.19 log base 2 | ✓ | PRDX2 (protein, UniProt P32119 2-198, looked up) Peroxiredoxin-2: ASGNARIGKPAPDFKATAVVDGAFKEVKLSDYKGKYVVLFFYPLDFTFVCPTEIIAFSNRAEDFRKLGCEVLGVSVDSQFTHLAWINTPRKEGGLGPLNIPLLADVTRRLSEDYGVLKTDEGIAYRGLFIIDGKGVLRQITVNDLPVGRSVDEALRLVQAFQYTDEHGEVCPAGWKPGSDTIKPNVDDSKEYFSKHN | 2.19 log base 2 | 4.01 log base 2 |
| 0.30 log base 2 | 0.07 log base 2 | 0.19 log base 2 | – | SRP14 (protein, UniProt P37108 2-136, looked up) Signal recognition particle …: VLLESEQFLTELTRLFQKCRTSGSVYITLKKYDGRTKPIPKKGTVEGFEPADNKCLLRATDGKKKISTVVSSKEVNKFQMAYSNLLRANMDGLKKRDKKNKTKKTKAAAAAAAAAPAAAATAPTTAATTAATAAQ | 2.23 log base 2 | 2.96 log base 2 |

The next lines start with the molecule.

| Molecule | Relative to UNC0638 UNC Heavy [1] | Relative to UNC0638 UNC Light [1] | Relative to UNC0638 Average [1] | Candidate G9a/GLP target ([1]; reduced association with 3xMBT after UNC0638 treatment) | 3xMBT/D355N UNC Heavy [2] | 3xMBT/D355N UNC Light [2] |
| --- | --- | --- | --- | --- | --- | --- |
| CALD1 (protein, UniProt Q05682 1-793, looked up) Caldesmon: MDDFERRRELRRQKREEMRLEAERIAYQRNDDDEEEAARERRRRARQERLRQKQEEESLGQVTDQVEVNAQNSVPDEEAKTTTTNTQVEGDDEAAFLERLARREERRQKRLQEALERQKEFDPTITDASLSLPSRRMQNDTAENETTEKEEKSESRQERYEIEETETVTKSYQKNDWRDAEENKKEDKEKEEEEEEKPKRGSIGENQVEVMVEEKTTESQEETVVMSLKNGQISSEEPKQEEEREQGSDEISHHEKMEEEDKERAEAERARLEAEERERIKAEQDKKIADERARIEAEEKAAAQERERREAEERERMREEEKRAAEERQRIKEEEKRAAEERQRIKEEEKRAAEERQRIKEEEKRAAEERQRARAEEEEKAKVEEQKRNKQLEEKKHAMQETKIKGEKVEQKIEGKWVNEKKAQEDKLQTAVLKKQGEEKGTKVQAKREKLQEDKPTFKKEEIKDEKIKKDKEPKEEVKSFMDRKKGFTEVKSQNGEFMTHKLKHTENTFSRPGGRASVDTKEAEGAPQVEAGKRLEELRRRRGETESEEFEKLKQKQQEAALELEELKKKREERRKVLEEEEQRRKQEEADRKLREEEEKRRLKEEIERRRAEAAEKRQKMPEDGLSDDKKPFKCFTPKGSSLKIEERAEFLNKSVQKSSGVKSTHQAAIVSKIDSRLEQYTSAIEGTKSAKPTKPAASDLPVPAEGVRNIKSMWEKGNVFSSPTAAGTPNKETAGLKVGVSSRINEWLTKTPDGNKSPAPKPSDLRPGDVSSKRNLWEKQSVDKVTSPTKV | 0.29 log base 2 | 0.09 log base 2 | 0.19 log base 2 | – | 3.53 log base 2 | 3.50 log base 2 |
| LSM12 (protein, UniProt Q3MHD2 2-195, looked up) Protein LSM12: AAPPGEYFSVGSQVSCRTCQEQRLQGEVVAFDYQSKMLALKCPSSSGKPNHADILLINLQYVSEVEIINDRTETPPPLASLNVSKLASKARTEKEEKLSQAYAISAGVSLEGQQLFQTIHKTIKDCKWQEKNIVVMEEVVITPPYQVENCKGKEGSALSHVRKIVEKHFRDVESQKILQRSQAQQPQKEAALSS | 0.03 log base 2 | 0.34 log base 2 | 0.18 log base 2 | – | 2.07 log base 2 | 3.81 log base 2 |
| KIF2A (protein, UniProt O00139 1-706, looked up) Kinesin-like protein KIF2A: MATANFGKIQIGIYVEIKRSDGRIHQAMVTSLNEDNESVTVEWIENGDTKGKEIDLESIFSLNPDLVPDEEIEPSPETPPPPASSAKVNKIVKNRRTVASIKNDPPSRDNRVVGSARARPSQFPEQSSSAQQNGSVSDISPVQAAKKEFGPPSRRKSNCVKEVEKLQEKREKRRLQQQELREKRAQDVDATNPNYEIMCMIRDFRGSLDYRPLTTADPIDEHRICVCVRKRPLNKKETQMKDLDVITIPSKDVVMVHEPKQKVDLTRYLENQTFRFDYAFDDSAPNEMVYRFTARPLVETIFERGMATCFAYGQTGSGKTHTMGGDFSGKNQDCSKGIYALAARDVFLMLKKPNYKKLELQVYATFFEIYSGKVFDLLNRKTKLRVLEDGKQQVQVVGLQEREVKCVEDVLKLIDIGNSCRTSGQTSANAHSSRSHAVFQIILRRKGKLHGKFSLIDLAGNERGADTSSADRQTRLEGAEINKSLLALKECIRALGRNKPHTPFRASKLTQVLRDSFIGENSRTCMIATISPGMASCENTLNTLRYANRVKELTVDPTAAGDVRPIMHHPPNQIDDLETQWGVGSSPQRDDLKLLCEQNEEEVSPQLFTFHEAVSQMVEMEEQVVEDHRAVFQESIRWLEDEKALLEMTEEVDYDVDSYATQLEAILEQKIDILTELRDKVKSFRAALQEEEQASKQINPKRPRAL | 0.23 log base 2 | 0.15 log base 2 | 0.19 log base 2 | – | 2.05 log base 2 | 2.33 log base 2 |
